Laboratory results as given in US20240343800A1 (Merck KGaA, published 2024).

B1: bispecific TCE 69A02 in Format 1B (bispecific antibody)
heavy 1: ETTLTQSPATLSVSPGETATLSCRASQSVSSNLAWYQQKPGQAPRLLIYGASTRATGIPATFSGSGSGTEFTLTISSLQSEDFAIYYCQQYKNWPPAFGGGTELEIKGGGGSGGGGSGGGGSGGGGSQVTLKESGPTLVKPTQTLTLTCSFSGFSITTSGVSVGWIRQPPGKALEWLALIYWDDDKRYSPSLKSRLTITRDTSKNQVVLTMTNMDPVDTATYYCAHAPRYTPGGYFDYWGQGTLVTVSSEPKSSDKTHTCPPCPAPPVAGPSVFLFPPKPKDTLMISRTPEVTCVVVDVSHEDPEVKFNWYVDGVEVHNAKTKPREEQYNSTYRVVSVLTVLHQDWLNGKEYKCAVSNKALAAPIEKTISKAKGQPFRPEVHLLPPSREEMTKNQVSLTCLARGFYPKDIAVEWESNGQPENNYKTTPSRQEPSQGTTTFAVTSKLTVDKSRWQQGNVFSCSVMHEALHNHYTQKTISLSPGKGGGGSGGGGSGGGGSGGGGSEVQLVESGGGLVQPGGSLRLSCAASGFTFNTYAMNWVRQAPGKGLEWVARIRSKYNNYATYYADSVKDRFTISRDDSKNTLYLQMNSLRAEDTAVYYCVRHGNFGNSYVSWFAYWGQGTMVTVSSASTKGPSVFPLAPSSKSTSGGTAALGCLVKDYFPEPVTVSWNSGALTSGVHTFPAVLQSSGLYSLSSVVTVPSSSLGTQTYICNVNHKPSNTKVDKKVEPKSS
heavy 2: ETTLTQSPATLSVSPGETATLSCRASQSVSSNLAWYQQKPGQAPRLLIYGASTRATGIPATFSGSGSGTEFTLTISSLQSEDFAIYYCQQYKNWPPAFGGGTELEIKGGGGSGGGGSGGGGSGGGGSQVTLKESGPTLVKPTQTLTLTCSFSGFSITTSGVSVGWIRQPPGKALEWLALIYWDDDKRYSPSLKSRLTITRDTSKNQVVLTMTNMDPVDTATYYCAHAPRYTPGGYFDYWGQGTLVTVSSEPKSSDKTHTCPPCPAPPVAGPSVFLFPPKPKDTLMISRTPEVTCVVVDVSHEDPEVKFNWYVDGVEVHNAKTKPREEQYNSTYRVVSVLTVLHQDWLNGKEYKCAVSNKALAAPIEKTISKAKGQPREPQVYTLPPPSEELALNELVTLTCLVKGFYPSDIAVEWLQGSQELPREKYLTWAPVLDSDGSFFLYSILRVAAEDWKKGDTFSCSVMHEALHNRFTQKSLDRSPGK
light: QAVVTQEPSLTVSPGGTVTLTCRSSTGAVTTSNYANWVQQKPGQAPRGLIGGTNKRAPGTPARFSGSLLGGKAALTLSGVQPEDEAEYYCALWYSNLWVFGGGTKLTVLGQPKAAPSVTLFPPSSEELQANKATLVCLISDFYPGAVTVAWKADSSPVKAGVETTTPSKQSNNKYAASSYLSLTPEQWKSHRSYSCQVTHEGSTVEKTVAPTECS
notes: also called 69A02 TCE 1B; 1B_69A02x1F3.5 (1B)
B2: bispecific TCE 82H02 in Format 1B (bispecific antibody)
chain 1: EIVLTQSPATLSLSPGERATLSCRASQSVSSYLAWYQQKPGQAPRLLIYDASNRATGIPARFSGSGSGTDFTLTISSLEPEDFAVYYCQQRSNWPPCTFGQGTRLEIKGGGGSGGGGSGGGGSGGGGSEVQLLESGGGLVQPGGSLRLSCAASGFTFTSYAMSWVRQAPGKGLEWVSTISGSGGGTYYTDSVKGRFTISRDNSKNTLYLQMNSLRAEDTAVYYCAQGSSIFDYWGQGTLVTVSSEPKSSDKTHTCPPCPAPEAAGGPSVFLFPPKPKDTLMISRTPEVTCVVVDVSHEDPEVKFNWYVDGVEVHNAKTKPREEQYNSTYRVVSVLTVLHQDWLNGKEYKCKVSNKALGAPIEKTISKAKGQPFRPEVHLLPPSREEMTKNQVSLTCLARGFYPKDIAVEWESNGQPENNYKTTPSRQEPSQGTTTFAVTSKLTVDKSRWQQGNVFSCSVMHEALHNHYTQKTISLSPGKGGGGSGGGGSGGGGSGGGGSEVQLVESGGGLVQPGGSLRLSCAASGFTFNTYAMNWVRQAPGKGLEWVARIRSKYNNYATYYADSVKDRFTISRDDSKNTLYLQMNSLRAEDTAVYYCVRHGNFGNSYVSWFAYWGQGTMVTVSSASTKGPSVFPLAPSSKSTSGGTAALGCLVKDYFPEPVTVSWNSGALTSGVHTFPAVLQSSGLYSLSSVVTVPSSSLGTQTYICNVNHKPSNTKVDKKVEPKSC
chain 2: EIVLTQSPATLSLSPGERATLSCRASQSVSSYLAWYQQKPGQAPRLLIYDASNRATGIPARFSGSGSGTDFTLTISSLEPEDFAVYYCQQRSNWPPCTFGQGTRLEIKGGGGSGGGGSGGGGSGGGGSEVQLLESGGGLVQPGGSLRLSCAASGFTFTSYAMSWVRQAPGKGLEWVSTISGSGGGTYYTDSVKGRFTISRDNSKNTLYLQMNSLRAEDTAVYYCAQGSSIFDYWGQGTLVTVSSEPKSSDKTHTCPPCPAPEAAGGPSVFLFPPKPKDTLMISRTPEVTCVVVDVSHEDPEVKFNWYVDGVEVHNAKTKPREEQYNSTYRVVSVLTVLHQDWLNGKEYKCKVSNKALGAPIEKTISKAKGQPREPQVYTLPPPSEELALNELVTLTCLVKGFYPSDIAVEWLQGSQELPREKYLTWAPVLDSDGSFFLYSILRVAAEDWKKGDTFSCSVMHEALHNHYTQKSLDRSPGK
chain 3: B1 light
B3: 82H02 scFv-Fc (Fc fusion)
VH: EVQLLESGGGLVQPGGSLRLSCAASGFTFTSYAMSWVRQAPGKGLEWVSTISGSGGGTYYTDSVKGRFTISRDNSKNTLYLQMNSLRAEDTAVYYCAQGSSIFDYWGQGTLVTVSS
VL: EIVLTQSPATLSLSPGERATLSCRASQSVSSYLAWYQQKPGQAPRLLIYDASNRATGIPARFSGSGSGTDFTLTISSLEPEDFAVYYCQQRSNWPPCTFGQGTRLEIK
notes: scFv-Fc format; also called unlabelled 82H02 scFv-Fc

Columns and labels:
human ROR1 (on cells) [1] = target: T1, human ROR1 (on cells) (human, UniProt Q01973 30-937); experiment: cell-based or functional assay
human ROR1 (on cells) [2] = target: T1, human ROR1 (on cells); experiment: cell-based or functional assay; remark: listed apart in the source
human ROR1 (on cells) [3] = target: T1, human ROR1 (on cells); experiment: cell-based or functional assay; remark: listed apart in the source
human ROR1 (on cells) [4] = target: T1, human ROR1 (on cells); experiment: cell-based or functional assay; remark: listed apart in the source
[5] = target: T2, human CD3 (on Jurkat T cells or human CD8+ T cells) (human, UniProt P07766 23-207; P09693 23-182; P04234 22-171; P20963 22-164); experiment: flow cytometry, Jurkat T cells
T2 construct: Entries are printed with signal peptides; also called huCD3; CD3ε
T2 sequence (P07766 23-207 limits assumed, chain 1 of 4): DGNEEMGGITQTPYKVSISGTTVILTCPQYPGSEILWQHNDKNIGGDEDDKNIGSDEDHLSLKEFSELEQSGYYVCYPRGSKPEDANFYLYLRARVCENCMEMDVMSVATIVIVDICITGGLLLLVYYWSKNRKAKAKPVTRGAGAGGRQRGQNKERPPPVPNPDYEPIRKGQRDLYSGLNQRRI
T2 sequence (P09693 23-182 limits assumed, chain 2 of 4): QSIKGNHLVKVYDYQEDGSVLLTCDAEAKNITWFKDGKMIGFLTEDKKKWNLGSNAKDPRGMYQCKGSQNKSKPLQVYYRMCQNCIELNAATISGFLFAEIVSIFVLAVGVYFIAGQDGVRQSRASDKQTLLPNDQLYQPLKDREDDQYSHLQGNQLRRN
T2 sequence (P04234 22-171 limits assumed, chain 3 of 4): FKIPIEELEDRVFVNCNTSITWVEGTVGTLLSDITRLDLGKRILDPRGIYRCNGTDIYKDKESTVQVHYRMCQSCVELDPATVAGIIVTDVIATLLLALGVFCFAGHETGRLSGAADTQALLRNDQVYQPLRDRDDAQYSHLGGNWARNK
T2 sequence (P20963 22-164 limits assumed, chain 4 of 4): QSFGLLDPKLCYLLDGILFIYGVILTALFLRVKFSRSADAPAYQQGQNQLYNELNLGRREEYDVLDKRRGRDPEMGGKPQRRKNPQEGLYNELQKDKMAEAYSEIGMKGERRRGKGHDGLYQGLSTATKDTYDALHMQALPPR
Protocol: (§1) After washing twice with 200 μL of phosphate buffered saline (PBS) by centrifugation at 500×g for 5 minutes at room temperature, the cells were resuspended in 100 μL of Live/Dead fixable green working buffer (ThermoFisher Scientific, Cat No: L23101; one vial of Live/Dead fixable green powder was dissolved into 50 μL of DMSO and 1 μL of dissolved Live/Dead fixable green was added to 1 mL of PBS to prepare the working buffer). After 15-minutes of incubation at room temperature, the cells were washed twice with 200 μL of PBS by centrifugation at 500×g for 5 minutes at room temperature and resuspended in […] of 10% goat serum in BD staining buffer (BD Biosciences, Cat No: 554657). […] The plates were then covered with foil to avoid direct light and incubated for 60 minutes at 4° C. […] After incubating for 30 minutes at 4° C., the cells were washed twice with 200 μL of PBS by centrifugation at 500×g for 5 minutes at room temperature and resuspended into 100 μL of fixation buffer (BioLegend, Cat No: 420801). The samples were then analyzed on a flow cytometer for binding signal using FlowJo software. ROR and CD3 binding EC₅₀s (concentration vs mean fluorescence intensity (MFI)) for reference molecules and test bispecific TCEs were obtained using 4-parameter non-linear regression curve fitting in GraphPad Prism.

human ROR1 (on cells) [6] = target: T1, human ROR1 (on cells); experiment: flow cytometry, MDA-MB-231 cells
Protocol: as §1

[7] = target: T3, cynomolgus CD3 (on cynomolgus pan-T cells) (cynomolgus, UniProt Q95LI5 22-198); experiment: flow cytometry, cynomolgus pan-T cells
T3 construct: whole, on cells
T3 sequence (Q95LI5 22-198): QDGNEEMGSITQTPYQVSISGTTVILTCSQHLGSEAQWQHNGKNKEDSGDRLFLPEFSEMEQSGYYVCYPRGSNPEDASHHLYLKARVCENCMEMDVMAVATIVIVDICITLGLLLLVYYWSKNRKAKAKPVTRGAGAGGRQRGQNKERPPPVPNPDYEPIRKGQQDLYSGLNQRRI
Protocol: as §1

[8] = target: T2, human CD3 (on Jurkat T cells or human …); experiment: flow cytometry; reference: 69A02 TCE in Format 1A
Protocol: The plates were then covered with foil to avoid direct light and incubated for 60 minutes at 4° C. […] After incubating for 30 minutes at 4° C., the cells were washed twice with 200 μL of PBS by centrifugation at 500×g for 5 minutes at room temperature and resuspended into 100 μL of fixation buffer (BioLegend, Cat No: 420801). The samples were then analyzed on a flow cytometer for binding signal using FlowJo software. ROR and CD3 binding EC₅₀s (concentration vs mean fluorescence intensity (MFI)) for reference molecules and test bispecific TCEs were obtained using 4-parameter non-linear regression curve fitting in GraphPad Prism.

human ROR1 (on cells) [9] = target: T1, human ROR1 (on cells); experiment: flow cytometry, MDA-MB-231 cells; reference: Ref. Frz-binding TCE
Protocol: as §1

human ROR1 (on cells) [10] = target: T1, human ROR1 (on cells); experiment: cell-based or functional assay; remark: listed apart in the source
human ROR1 (on cells) [11] = target: T1, human ROR1 (on cells); experiment: cell-based or functional assay; remark: listed apart in the source
human ROR1 (on cells) [12] = target: T1, human ROR1 (on cells); experiment: cell-based or functional assay; remark: listed apart in the source
[13] = target: T4, mouse ROR1 (on 4T1 cells engineered to overexpress it) (mouse, UniProt Q9Z139 30-937); experiment: cell-based or functional assay
human ROR1 (on cells) [14] = target: T1, human ROR1 (on cells); experiment: cell-based or functional assay; remark: listed apart in the source
[15] = target: T4, mouse ROR1 (on 4T1 cells engineered to …); experiment: cell-based or functional assay; remark: listed apart in the source
human ROR1 (on cells) [16] = target: T1, human ROR1 (on cells); experiment: flow cytometry, 4T1 cells overexpressing human ROR1
[17] = target: T4, mouse ROR1 (on 4T1 cells engineered to …); experiment: flow cytometry, 4T1 cells overexpressing mouse ROR1
human ROR1 (on cells) [18] = target: T1, human ROR1 (on cells); experiment: flow cytometry competition on NCCIT cells: pre-treatment with titrated unlabelled scFv-Fc, then 146 nM 82H02 scFv-Fc labelled with Alexa Fluor 647-conjugated Zenon fragments

Binder	EC50 of target cell killing (TDCC), human CD8+ T cells + ROR1+ MDA-MB-231 (human ROR1 (on cells) [1])	EC50 of IFNγ release, human CD8+ T cells + ROR1+ MDA-MB-231 (human ROR1 (on cells) [2])	TDCC EC50, PBMCs + ROR1+ MDA-MB-231 cells (human ROR1 (on cells) [3])	IFNγ release EC50, PBMCs + ROR1+ MDA-MB-231 cells (human ROR1 (on cells) [4])	EC50 [5]	EC50 (human ROR1 (on cells) [6])	EC50 [7]	fold lower apparent binding affinity [8]	fold higher apparent binding affinity (human ROR1 (on cells) [9])	TDCC EC50, cynomolgus CD8+ T cells + ROR1+ MDA-MB-231 (human ROR1 (on cells) [10])	TDCC EC50, human CD8+ T cells + ROR1+ MDA-MB-231 (human ROR1 (on cells) [10])	IFNγ release EC50, cynomolgus CD8+ T cells + ROR1+ MDA-MB-231 (human ROR1 (on cells) [11])	IFNγ release EC50, human CD8+ T cells + ROR1+ MDA-MB-231 (human ROR1 (on cells) [11])	TDCC EC50, hCD3 KI splenocytes: hROR1+ 4T1 cells (human ROR1 (on cells) [12])	TDCC EC50, hCD3 KI splenocytes: mROR1+ 4T1 cells [13]	IFNγ release EC50, hCD3 KI splenocytes: hROR1+ 4T1 cells (human ROR1 (on cells) [14])	IFNγ release EC50, hCD3 KI splenocytes: mROR1+ 4T1 cells [15]	EC50 (human ROR1 (on cells) [16])	EC50 [17]	IC50 (read off the curve) (human ROR1 (on cells) [18])
B1	0.0356 nM	0.0289 nM	0.048 nM	2.09 nM	35.9 nM	0.43 nM	17.6 nM	~4 fold	> 30 fold	–	–	–	–	–	–	–	–	–	–	–
B2	0.0581 nM	0.0889 nM	0.0766 nM	7.12 nM	67.3 nM	2.23 nM	34.9 nM	–	–	0.0548 nM	0.0237 nM	0.191 nM	0.104 nM	0.185 nM	0.0215 nM	> 0.3 nM	0.14 nM	0.7 nM	2.01 nM	–
B3	–	–	–	–	–	–	–	–	–	–	–	–	–	–	–	–	–	–	–	~2 nM
